Assay results published in PMC8510529 (mBio, 2021).
Residue numbers refer to the chain shown, from its start.

B1: WNV-103 (antibody, V domains shown)
VH: EVQLVESGGGLLQPGGSLRLSCAASGFSFSRYWMHWVRQAPGKGLIWVSRINTDGSTTIYADSVKGRFTVSRDNAKNTLFLQMSRLRPEDTAVYYCARVIASPGISYGMDVWGHGTTVTVSS
VL: SHELTQPPSVSVSPGQTATITCSGDALPKQYAYWYQQKSGQAPVLVIYKDTKRPSGIPERFSGSSSGTVVTLTISGVQAEDEADYYCQSADISSTYVVFAGGTKLTVL
B2: WNV-104 (antibody, V domains shown)
VH: QVQLVESGGGVVQPGTSLRLSCAASGFTFRSYGMHWVRQAPGKGLEWVALIWYDGSNKYYADSVKGRFTISRDNSRSTLYLQMNSLRAEDTAVYYCARDLGEYDSLVGPLYTARLGYWGQGTLVTVSS
VL: DIQMTQSPSSLSASVGDRVTMTCQASQDISNYLNWYQQKPGKAPNLLIYDASNLETGVPSRFSGSGSGTDFTFTISSLQPEDIATYYCQQYDNLPITFGQGTRLEIK
B3: WNV-117 (antibody, V domains shown)
VH: EVQLLESGGGLVQPGGSLRLSCAASGFTFSNYAMSWVRQAPGKGLEWVSSISDRGDYTYYADSVKGRFTISRDKSRNTLYLQIKSLRAEDTAVYYCAKCWGRGSYSGIPD
VL: B2 VL with M21I, T22S, Q27H, S30T, Y32F, N45K, T56A, P95F
B4: WNV-96 (antibody, V domains shown)
VH: QVQLVQSGAEVKKPGASVKVSCRPSGYIFTNYYIEWVRQAPGQGLEWMGIINPSGGKTTYAQKFQGRVTMTSDTSTSTVYMELSSLRSDDTAVYYCARDGNGSDYWGQGTRVTVSS
VL: DVQMTQSPSSLSASVGDRVTITCRASQNINNYLNWYQQKPGRAPKLLIYATSNLESGVPSRFSGSRSGADFTLTISSLQPEDFASYYCQQSYNAPRTFGHGTKVEIK
notes: also called IgG1-WT variant of WNV-96
B5: WNV-99 (antibody, V domains shown)
VH: QVRLVESGGGVVQPGRSLRLSCAASGFTLSSYGMHWVRQAPGKGLEWVAIISYDGSDKYYADSVKGRFTISRDNSKNTLYLQMNSLRPEDTAMYYCAKPDRSSSPFAHWGQGTLVTVSS
VL: SYELTQPPSVSVSPGQTARITCSGDALPKQYAFWYQQKPGQTPVVVISKDSERPSGIPERFSGSSSGTTVTLTISGVQAEDEADYYCQSADSSGIWVFGGGTKLTVL
B6: WNV-100 (antibody, V domains shown)
VH: QLQLQESGSGLVKPSQTLSLTCTVSGDSIGSGGFSWTWIRQPPGKGLEWIGNIYHSGGTYYNPSLKSRVTISIDNSTHFSLKLSSVTAADSAVYYCARDRGMVIKRRPWSYGLDVWGQGTTVSVSS
VL: QSVLTQPPSASGTPGQRVTISCSGGSSNIGSNSVSWYQHLPRTAPKLLIYSNNQRSSGVPDRFSGSKSGTSASLAISGLQSDDEADYYCAAWDDSLHVLFGGGTKLTVL
B7: WNV-116 (antibody, V domains shown)
VH: QMQLVESGGGVVQPGRSLRLSCVASGFNFKTYVMNWVRQAPGKGLEWVAVILSDGDNKYYADSVKGRFTISRDNSKNTLFLQMDSLRADDTAVYYCTRVPHCSTSSCYKEYYNYYMDVWGKGTTVSVSS
VL: EIVLTQSPATLSLSPGDRATLSCRASQSLSTSLAWYQQKPGQAPRLVIYDASNRAADIPARFSGSGSGTDFTLTIRSLEPEDFAVYYCQQRSNWPPRYTFGQGTKLEIK
B8: WNV-120 (antibody, V domains shown)
VH: KVQLEESGGGWVKPGRSLRLSCGASGFRFDDYAMHWVRQVPGKGLEWVSGISWDSDGIGYADSVKGRFTISRDNAKNSLFLQMNSLRAEDTALYYCVKDKGWLIQGRFDSWGQGIRVTVSS
VL: DIVVTQSPDSLAVSLGERVTINCKTSQSVLYTFNNQNYLAWYQQKSGQPPKLLIYWASTRESGVPDRFSGSGSGTDFTLTISRLQAEDVAVYYCQQFYISPPGTFGQGTKVEIK
B9: WNV-113 (antibody, V domains shown)
VH: QITLKESGPTLVKPTQTLTVTCTFSGFSLNTNGVGVGWIRQPPGKALEWLALIYWDDVKRYRPSLESRLTITKDTSKNQVVLTMTDMDPVDTGTYYCAHRFHSRGWYTFDYWGQGTRVTVSS
VL: SYVLTQPPSVSVAPGQTARITCGGNNIGGKNVHWYQQKPGQAPVLVVYDDNDRPSGIPERFSGSNSGNTATLTISRVEAGDEADFYCQVWDSNSEHVVFGGGTKLTVL
B10: WNV-98 (antibody, V domains shown)
VH: QVQLVESGGGLVKPGGSLRLSCAASGFPFTNYYMSWIRQAPGKGLEWISYITSRGDTAYYADSVKGRFTVARDNSKNSLYLQMNSLRAEDTAMYFCARGGDDYADSWGQGILVTVSS
VL: EIVLTQSPATLPLSPGERATLSCRASQSINTNLAWYQQKPGQAPRLLIYETSHRASAIPARFSGSGSGTDFTLKISSLEPEDLAIYYCQQYRNWPQTFGQGTRLEIK
B11: WNV-95 (antibody, V domains shown)
VH: QVQLQESGPGLVKPSQTLSLTCTVSGGSINSGAFYWSWIRQHPGKGLEWIGFIYYSGSTYYNPSLRSRVTISVDTSKNQFSLKLISVTAADTAVYYCARDRPDDPGPYFDSWGRGTLVTVSS
VL: QSALTQPASVSGSPGQSITISCTGTSNDVGRYNSVSWYQQHPGNAPKLMIYDVSNRPSGVSNRFSGSKSGNTASLTISGLQAEDEADYYCSSYTSSSSVVFGGGTKLTVL
B12: WNV-97 (antibody, V domains shown)
VH: QVQLVESGGGLVQPGGSLRVSCAASGFTFSTYEMNWVRQAPGKGLEWVSYISNSGTIIYYADSVKGRFTISRDNAKNSLYLQMNSLRAEDTAIYYCGRVLRDRDVVAGPPARVWDYYYYGMDVWGQGTTVTVSS
VL: DIVMTQSPLSLPVTPGEPASISCRSSQSLLHSSGYNCLDWYLQKPGQSPQLLIYLRSNRASGVPDRFSGSGSGTDFTLKISRVEAEDVGVYYCMQTLQTPWTFGQGTKVEIK

Target: T1, full-length WNV NS1 (strain 382-99), wild type, expressed in HEK293T cells (West Nile virus, New York 1999, strain …, UniProt Q9Q6P4)
T1 construct: also called WT NS1; WT WNV NS1; source: HEK293T, transfected (pFM-A1.2), on fixed cells
T1 sequence (Q9Q6P4 792-1143): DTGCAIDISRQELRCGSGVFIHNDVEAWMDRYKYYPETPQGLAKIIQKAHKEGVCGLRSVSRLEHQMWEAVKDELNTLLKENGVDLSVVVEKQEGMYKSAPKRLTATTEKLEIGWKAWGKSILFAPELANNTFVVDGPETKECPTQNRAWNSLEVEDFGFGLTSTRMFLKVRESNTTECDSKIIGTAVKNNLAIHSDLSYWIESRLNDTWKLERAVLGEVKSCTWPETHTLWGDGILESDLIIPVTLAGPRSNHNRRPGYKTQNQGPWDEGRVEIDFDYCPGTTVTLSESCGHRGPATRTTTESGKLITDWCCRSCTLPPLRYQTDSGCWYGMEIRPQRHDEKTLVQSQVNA
Test: flow cytometry on cells
Conditions: one partner purified

| Binder | binding result |
| --- | --- |
| B1 | binds |
| B2 | binds |
| B3 | binds |
| B4 | binds |
| B5 | binds |
| B6 | binds |
| B7 | binds |
| B8 | binds |
| B9 | binds |
| B10 | binds |
| B11 | binds |

Target: T2, TBEV NS1 protein (Native Antigen) (Tick-borne encephalitis virus, strain …, UniProt P14336)
T2 construct: source: bought: Native Antigen
T2 sequence (P14336 777-1128): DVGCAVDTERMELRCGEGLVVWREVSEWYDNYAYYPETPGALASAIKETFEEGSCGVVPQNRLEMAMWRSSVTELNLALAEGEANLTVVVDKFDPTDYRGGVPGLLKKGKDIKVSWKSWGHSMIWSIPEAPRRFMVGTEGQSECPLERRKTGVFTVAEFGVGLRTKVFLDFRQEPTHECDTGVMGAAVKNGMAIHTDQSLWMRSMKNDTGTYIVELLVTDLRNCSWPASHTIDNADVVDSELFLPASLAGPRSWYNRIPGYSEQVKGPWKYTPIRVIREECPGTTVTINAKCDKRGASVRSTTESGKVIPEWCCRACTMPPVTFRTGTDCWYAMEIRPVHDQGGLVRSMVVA
Test: ELISA
Conditions: both partners purified

| Binder | binding result |
| --- | --- |
| B5 | binds |
| B6 | binds |
| B12 | binds |

Target: T3, DENV2 NS1 protein (Native Antigen) (Dengue virus type 2, strain  …, UniProt P29990)
T3 construct: source: bought: Native Antigen
T3 sequence (P29990 776-1127): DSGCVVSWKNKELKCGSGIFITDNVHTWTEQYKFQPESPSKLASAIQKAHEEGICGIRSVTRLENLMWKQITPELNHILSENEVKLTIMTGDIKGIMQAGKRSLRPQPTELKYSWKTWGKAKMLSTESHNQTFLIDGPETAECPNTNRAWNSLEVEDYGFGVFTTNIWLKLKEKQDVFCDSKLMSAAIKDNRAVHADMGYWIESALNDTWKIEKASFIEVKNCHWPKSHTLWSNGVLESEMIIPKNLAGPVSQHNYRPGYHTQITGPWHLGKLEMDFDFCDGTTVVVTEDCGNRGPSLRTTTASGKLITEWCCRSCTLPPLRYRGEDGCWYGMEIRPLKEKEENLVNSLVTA
Test: ELISA
Conditions: both partners purified

| Binder | binding result |
| --- | --- |
| B6 | binds |

Target: T4, JEV NS1 protein (Native Antigen) (Japanese encephalitis virus, strain not …, UniProt P27395)
T4 construct: source: bought: Native Antigen
T4 sequence (P27395 795-1146): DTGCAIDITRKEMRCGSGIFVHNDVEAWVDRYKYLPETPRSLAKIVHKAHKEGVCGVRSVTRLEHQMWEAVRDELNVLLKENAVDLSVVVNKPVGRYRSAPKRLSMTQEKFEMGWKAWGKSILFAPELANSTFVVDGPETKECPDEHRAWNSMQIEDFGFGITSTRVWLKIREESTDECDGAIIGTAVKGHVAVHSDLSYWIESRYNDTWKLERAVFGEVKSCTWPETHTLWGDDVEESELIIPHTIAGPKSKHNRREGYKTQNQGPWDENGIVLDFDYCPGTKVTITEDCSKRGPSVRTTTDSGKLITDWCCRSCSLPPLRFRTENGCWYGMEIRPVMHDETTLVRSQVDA
Test: ELISA
Conditions: both partners purified

| Binder | binding result |
| --- | --- |
| B5 | binds |
| B6 | binds |
| B8 | binds |

Target: T5, recombinant soluble WNV NS1 protein (Native Antigen) (West Nile virus, strain of bought …, UniProt Q9Q6P4)
T5 construct: also called recombinant WNV NS1; recombinant, hexameric WNV NS1; source: bought: Native Antigen
T5 sequence (Q9Q6P4 792-1143): as the sequence (Q9Q6P4 792-1143) above
Test: ELISA
Conditions: both partners purified

| Binder | binding result |
| --- | --- |
| B1 | binds |
| B2 | binds |
| B3 | binds |
| B4 | binds |
| B5 | binds |
| B6 | binds |
| B7 | binds |
| B8 | binds |
| B9 | binds |
| B10 | binds |
| B11 | binds |
